Target: the molecule itself
Experiment: SEC

B1: PAE-EndA linker variant LPEI (6×His-PAE0789 fused through -Leu-Pro-Glu-Ile- to PAE2269) (enzyme, Pyrobaculum aerophilum)
chain: MDVLQEQVFKDLKSRGFKIIEQLDDKIFIAEKKERYLFYVMVEGVEVTIQTLLSVINMGETLSMPVVLALVSNDGTVTYYYVRKIRLPRNIYAEAVLPEIMIGYLRGLAVIVEDVEFARRLYKEGFYGRFLGYDKVKRDEVEKINAPLILGLYEALYLAEKGRLKVMGEDGREVAPEELAALGRERMRNFDEIYKIYKYFRDLGYVVKSGLKFGALFSVYEKGPGIDHAPMVVVFLEPDKGISATDITRGGRLSHSVRKTWTLATVLRQTGEVVLLGFGWARL
B1 was tested, and the “stoichiometry N” value was 2.

Source: publication PMC2724299 (Nucleic Acids Research, 2009)
